Assay results published in patent publication EP4814018A2 (F. Hoffmann-La Roche AG, dated 2026).

B1: clone 494 VH 1 / VL 0 (mu) (antibody, V domains shown)
VH: QVQLVQSGAEVKKPGASVKVSCKASGFNIKDTYIHWVIQAPGQGLEWMGRIDPANGDTKSDPKFQVRVTITADTSTSTVYMELSSLRSEDTAVYYCVRDYLYPYYFDFWGQGTTVTVSS
VL: KIVMTQSPKSMSMSVGERVTLNCRASESVDTYVSWYQQKPEQSPELLIYGASNRYTGVPDRFTGSGSATDFTLTISSVQAEDLADYYCGQTYNYPLTFGAGTKLELKR
B2: clone 494 VH 2 / VL 4 (antibody, V domains shown)
VH: QVQLVQSGAEVKKPGASVKVSCKASGFNIKDTYIHWVIQAPGQGLEWMGRIDPANGDTKSAPKFQVRVTITADTSTSTVYMELSSLRSEDTAVYYCVRDYLYPYYFDFWGQGTTVTVSS
VL: KIVLTQSPGTLSLSPGERATLSCRASESVDTYVSWYQQKPGQAPRLLIYGASNRYTGIPDRFSGSGSGTDFTLTISRLEPEDFADYYCGQTYNYPLTFGQGTKLEI
B3: clone 494 VH 4 / VL 0 (mu) (antibody, V domains shown)
VH: QVQLVQSGAEVKKPGSSVKVSCKASGFNIKDTYIHWVIQAPGQGLEWMGRIDPANGDTKSDPKFQGRVTITADESTSTAYMELSSLRSEDTAVYYCVRDYLYPYYFDFWGQGTTVTVSS
VL: KIVMTQSPKSMSMSVGERVTLNCRASESVDTYVSWYQQKPEQSPELLIYGASNRYTGVPDRFTGSGSATDFTLTISSVQAEDLADYYCGQTYNYPLTFGAGTKLELKR
B4: clone 494 VH 4 / VL 1 (antibody, V domains shown)
VH: QVQLVQSGAEVKKPGSSVKVSCKASGFNIKDTYIHWVIQAPGQGLEWMGRIDPANGDTKSDPKFQGRVTITADESTSTAYMELSSLRSEDTAVYYCVRDYLYPYYFDFWGQGTTVTVSS
VL: KIQMTQSPSSLSASVGDRVTITCRASESVDTYVSWYQQKPGKAPKLLIYGASNRYTGVPSRFSGSGSGTDFTLTISSLQPEDFADYYCGQTYNYPLTFGQGTKLEI
B5: clone 494 VH 2 / VL 1 (antibody, V domains shown)
VH: QVQLVQSGAEVKKPGASVKVSCKASGFNIKDTYIHWVIQAPGQGLEWMGRIDPANGDTKSAPKFQVRVTITADTSTSTVYMELSSLRSEDTAVYYCVRDYLYPYYFDFWGQGTTVTVSS
VL: KIQMTQSPSSLSASVGDRVTITCRASESVDTYVSWYQQKPGKAPKLLIYGASNRYTGVPSRFSGSGSGTDFTLTISSLQPEDFADYYCGQTYNYPLTFGQGTKLEI
B6: clone 494 VH 1 / VL 3 (antibody, V domains shown)
VH: QVQLVQSGAEVKKPGASVKVSCKASGFNIKDTYIHWVIQAPGQGLEWMGRIDPANGDTKSDPKFQVRVTITADTSTSTVYMELSSLRSEDTAVYYCVRDYLYPYYFDFWGQGTTVTVSS
VL: EIVLTQSPGTLSLSPGERATLSCRASESVDTYVSWYQQKPGQAPRLLIYGASNRYTGVPDRFSGSGSGTDFTLTISRLEPEDFADYYCGQTYNYPLTFGQGTKLEI
B7: clone 494 VH 3 / VL 1 (antibody, V domains shown)
VH: QVQLVQSGAEVKKPGASVKVSCKASGFNIKDTYIHWVIQAPGQGLEWMGRIDPANGDTKSDPKFQGRVTITADTSTSTVYMELSSLRSEDTAVYYCVRDYLYPYYFDFWGQGTTVTVSS
VL: KIQMTQSPSSLSASVGDRVTITCRASESVDTYVSWYQQKPGKAPKLLIYGASNRYTGVPSRFSGSGSGTDFTLTISSLQPEDFADYYCGQTYNYPLTFGQGTKLEI
B8: clone 494 VH 4 / VL 3 (antibody, V domains shown)
VH: QVQLVQSGAEVKKPGSSVKVSCKASGFNIKDTYIHWVIQAPGQGLEWMGRIDPANGDTKSDPKFQGRVTITADESTSTAYMELSSLRSEDTAVYYCVRDYLYPYYFDFWGQGTTVTVSS
VL: EIVLTQSPGTLSLSPGERATLSCRASESVDTYVSWYQQKPGQAPRLLIYGASNRYTGVPDRFSGSGSGTDFTLTISRLEPEDFADYYCGQTYNYPLTFGQGTKLEI
B9: clone 494 VH 3 / VL 2 (antibody, V domains shown)
VH: QVQLVQSGAEVKKPGASVKVSCKASGFNIKDTYIHWVIQAPGQGLEWMGRIDPANGDTKSDPKFQGRVTITADTSTSTVYMELSSLRSEDTAVYYCVRDYLYPYYFDFWGQGTTVTVSS
VL: KIVLTQSPGTLSLSPGERATLSCRASESVDTYVSWYQQKPGQAPRLLIYGASNRYTGVPDRFSGSGSGTDFTLTISRLEPEDFADYYCGQTYNYPLTFGQGTKLEI
B10: clone 494 VH 3 / VL 4 (antibody, V domains shown)
VH: QVQLVQSGAEVKKPGASVKVSCKASGFNIKDTYIHWVIQAPGQGLEWMGRIDPANGDTKSDPKFQGRVTITADTSTSTVYMELSSLRSEDTAVYYCVRDYLYPYYFDFWGQGTTVTVSS
VL: KIVLTQSPGTLSLSPGERATLSCRASESVDTYVSWYQQKPGQAPRLLIYGASNRYTGIPDRFSGSGSGTDFTLTISRLEPEDFADYYCGQTYNYPLTFGQGTKLEI
B11: clone 494 VH 1 / VL 2 (antibody, V domains shown)
VH: QVQLVQSGAEVKKPGASVKVSCKASGFNIKDTYIHWVIQAPGQGLEWMGRIDPANGDTKSDPKFQVRVTITADTSTSTVYMELSSLRSEDTAVYYCVRDYLYPYYFDFWGQGTTVTVSS
VL: KIVLTQSPGTLSLSPGERATLSCRASESVDTYVSWYQQKPGQAPRLLIYGASNRYTGVPDRFSGSGSGTDFTLTISRLEPEDFADYYCGQTYNYPLTFGQGTKLEI
B12: clone 494 VH 3 / VL 0 (mu) (antibody, V domains shown)
VH: QVQLVQSGAEVKKPGASVKVSCKASGFNIKDTYIHWVIQAPGQGLEWMGRIDPANGDTKSDPKFQGRVTITADTSTSTVYMELSSLRSEDTAVYYCVRDYLYPYYFDFWGQGTTVTVSS
VL: KIVMTQSPKSMSMSVGERVTLNCRASESVDTYVSWYQQKPEQSPELLIYGASNRYTGVPDRFTGSGSATDFTLTISSVQAEDLADYYCGQTYNYPLTFGAGTKLELKR
B13: clone 494 VH 1 / VL 4 (antibody, V domains shown)
VH: QVQLVQSGAEVKKPGASVKVSCKASGFNIKDTYIHWVIQAPGQGLEWMGRIDPANGDTKSDPKFQVRVTITADTSTSTVYMELSSLRSEDTAVYYCVRDYLYPYYFDFWGQGTTVTVSS
VL: KIVLTQSPGTLSLSPGERATLSCRASESVDTYVSWYQQKPGQAPRLLIYGASNRYTGIPDRFSGSGSGTDFTLTISRLEPEDFADYYCGQTYNYPLTFGQGTKLEI
B14: clone 494 VH 2 / VL 0 (mu) (antibody, V domains shown)
VH: QVQLVQSGAEVKKPGASVKVSCKASGFNIKDTYIHWVIQAPGQGLEWMGRIDPANGDTKSAPKFQVRVTITADTSTSTVYMELSSLRSEDTAVYYCVRDYLYPYYFDFWGQGTTVTVSS
VL: KIVMTQSPKSMSMSVGERVTLNCRASESVDTYVSWYQQKPEQSPELLIYGASNRYTGVPDRFTGSGSATDFTLTISSVQAEDLADYYCGQTYNYPLTFGAGTKLELKR
B15: clone 494 VH 2 / VL 3 (antibody, V domains shown)
VH: QVQLVQSGAEVKKPGASVKVSCKASGFNIKDTYIHWVIQAPGQGLEWMGRIDPANGDTKSAPKFQVRVTITADTSTSTVYMELSSLRSEDTAVYYCVRDYLYPYYFDFWGQGTTVTVSS
VL: EIVLTQSPGTLSLSPGERATLSCRASESVDTYVSWYQQKPGQAPRLLIYGASNRYTGVPDRFSGSGSGTDFTLTISRLEPEDFADYYCGQTYNYPLTFGQGTKLEI
B16: clone 494 VH 4 / VL 2 (antibody, V domains shown)
VH: QVQLVQSGAEVKKPGSSVKVSCKASGFNIKDTYIHWVIQAPGQGLEWMGRIDPANGDTKSDPKFQGRVTITADESTSTAYMELSSLRSEDTAVYYCVRDYLYPYYFDFWGQGTTVTVSS
VL: KIVLTQSPGTLSLSPGERATLSCRASESVDTYVSWYQQKPGQAPRLLIYGASNRYTGVPDRFSGSGSGTDFTLTISRLEPEDFADYYCGQTYNYPLTFGQGTKLEI
B17: clone 494 VH 0 (mu) / VL 1 (antibody, V domains shown)
VH: EVQLQQSGAVLVKPGASVKLSCPASGFNIKDTYIHWVIQRPEQGLEWIGRIDPANGDTKCDPKFQVKATITADTSSNTAYLQLSSLTSEDTAVYFCVRDYLYPYYFDFWGQGTTLTVSS
VL: KIQMTQSPSSLSASVGDRVTITCRASESVDTYVSWYQQKPGKAPKLLIYGASNRYTGVPSRFSGSGSGTDFTLTISSLQPEDFADYYCGQTYNYPLTFGQGTKLEI
B18: clone 494 VH 0 (mu) / VL 2 (antibody, V domains shown)
VH: EVQLQQSGAVLVKPGASVKLSCPASGFNIKDTYIHWVIQRPEQGLEWIGRIDPANGDTKCDPKFQVKATITADTSSNTAYLQLSSLTSEDTAVYFCVRDYLYPYYFDFWGQGTTLTVSS
VL: KIVLTQSPGTLSLSPGERATLSCRASESVDTYVSWYQQKPGQAPRLLIYGASNRYTGVPDRFSGSGSGTDFTLTISRLEPEDFADYYCGQTYNYPLTFGQGTKLEI
B19: clone 494 VH 0 (mu) / VL 3 (antibody, V domains shown)
VH: EVQLQQSGAVLVKPGASVKLSCPASGFNIKDTYIHWVIQRPEQGLEWIGRIDPANGDTKCDPKFQVKATITADTSSNTAYLQLSSLTSEDTAVYFCVRDYLYPYYFDFWGQGTTLTVSS
VL: EIVLTQSPGTLSLSPGERATLSCRASESVDTYVSWYQQKPGQAPRLLIYGASNRYTGVPDRFSGSGSGTDFTLTISRLEPEDFADYYCGQTYNYPLTFGQGTKLEI
B20: clone 494 VH 0 (mu) / VL 4 (antibody, V domains shown)
VH: EVQLQQSGAVLVKPGASVKLSCPASGFNIKDTYIHWVIQRPEQGLEWIGRIDPANGDTKCDPKFQVKATITADTSSNTAYLQLSSLTSEDTAVYFCVRDYLYPYYFDFWGQGTTLTVSS
VL: KIVLTQSPGTLSLSPGERATLSCRASESVDTYVSWYQQKPGQAPRLLIYGASNRYTGIPDRFSGSGSGTDFTLTISRLEPEDFADYYCGQTYNYPLTFGQGTKLEI
B21: clone-299 (antibody, V domains shown)
VH: QSMEESGGRLVTPGTPLTLTCTVSGFSLSSYAMSWVRQAPGKGLEWIGYIWSGGSTDYASWAKGRFTISKTSTTVDLKITSPTTEDTATYFCARRYGTSYPDYGDANGFDPWGPGTLVTVSS
VL: AYDMTQTPASVEVAVGGTVTIKCQASQSISSYLSWYQQKPGQRPKLLIYRASTLASGVSSRFKGSGSGTQFTLTISGVECADAATYYCQQCYSSSNVDNTFGGGTEVVVK
notes: Rabbit variable domains

Target: T1, human transferrin receptor (human, UniProt P02786 89-760)
T1 construct: also called huTfR; hTfR
T1 sequence (P02786 89-760 limits assumed): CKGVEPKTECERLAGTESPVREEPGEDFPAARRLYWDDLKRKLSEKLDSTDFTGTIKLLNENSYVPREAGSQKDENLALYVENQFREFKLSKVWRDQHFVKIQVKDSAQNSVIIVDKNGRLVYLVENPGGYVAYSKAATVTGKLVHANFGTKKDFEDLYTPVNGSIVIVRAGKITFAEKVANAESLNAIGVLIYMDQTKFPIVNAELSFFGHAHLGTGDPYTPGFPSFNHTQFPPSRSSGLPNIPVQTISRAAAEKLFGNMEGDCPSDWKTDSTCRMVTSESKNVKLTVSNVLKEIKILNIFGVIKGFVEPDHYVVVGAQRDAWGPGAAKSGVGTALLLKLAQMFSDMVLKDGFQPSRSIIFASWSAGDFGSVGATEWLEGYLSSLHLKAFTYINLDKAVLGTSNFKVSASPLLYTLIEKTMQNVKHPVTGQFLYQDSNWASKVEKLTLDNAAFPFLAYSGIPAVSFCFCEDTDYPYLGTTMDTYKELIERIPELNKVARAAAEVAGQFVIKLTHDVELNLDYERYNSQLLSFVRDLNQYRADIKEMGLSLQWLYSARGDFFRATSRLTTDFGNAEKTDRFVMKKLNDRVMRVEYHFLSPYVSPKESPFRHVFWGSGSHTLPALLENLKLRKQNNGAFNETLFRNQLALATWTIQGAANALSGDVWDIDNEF
Assay: SPR off-rate

Point of comparison: B8, koff 0.000452 s⁻¹. Against it:
- B1 — 3.3-fold lower, 0.000137 s⁻¹
- B2 — 1.6-fold higher, 0.000703 s⁻¹
- B3 — 2.6-fold lower, 0.000177 s⁻¹
- B4 — within 1.5-fold, 0.000448 s⁻¹
- B5 — within 1.5-fold, 0.000454 s⁻¹
- B6 — within 1.5-fold, 0.000386 s⁻¹
- B7 — within 1.5-fold, 0.000476 s⁻¹
- B9 — within 1.5-fold, 0.000415 s⁻¹
- B10 — 1.5-fold higher, 0.000683 s⁻¹
- B11 — within 1.5-fold, 0.000399 s⁻¹
- B12 — 3.1-fold lower, 0.000148 s⁻¹
- B13 — within 1.5-fold, 0.000657 s⁻¹
- B14 — 2.9-fold lower, 0.000156 s⁻¹
- B15 — within 1.5-fold, 0.00043 s⁻¹
- B16 — within 1.5-fold, 0.000438 s⁻¹
- B17 — within 1.5-fold, 0.00037 s⁻¹
- B18 — within 1.5-fold, 0.000364 s⁻¹
- B19 — within 1.5-fold, 0.000339 s⁻¹
- B20 — within 1.5-fold, 0.000542 s⁻¹

Target: T1, human transferrin receptor
Assay: BIAcore

With B21 the “BIAcore t1/2” value was 19 min.

Target: T2, cynomolgus transferrin receptor (cynomolgus, UniProt H9EXL1 89-760 (rhesus entry))
T2 construct: also called cyTfR; Cyno TfR
T2 sequence (chain, as listed by the source): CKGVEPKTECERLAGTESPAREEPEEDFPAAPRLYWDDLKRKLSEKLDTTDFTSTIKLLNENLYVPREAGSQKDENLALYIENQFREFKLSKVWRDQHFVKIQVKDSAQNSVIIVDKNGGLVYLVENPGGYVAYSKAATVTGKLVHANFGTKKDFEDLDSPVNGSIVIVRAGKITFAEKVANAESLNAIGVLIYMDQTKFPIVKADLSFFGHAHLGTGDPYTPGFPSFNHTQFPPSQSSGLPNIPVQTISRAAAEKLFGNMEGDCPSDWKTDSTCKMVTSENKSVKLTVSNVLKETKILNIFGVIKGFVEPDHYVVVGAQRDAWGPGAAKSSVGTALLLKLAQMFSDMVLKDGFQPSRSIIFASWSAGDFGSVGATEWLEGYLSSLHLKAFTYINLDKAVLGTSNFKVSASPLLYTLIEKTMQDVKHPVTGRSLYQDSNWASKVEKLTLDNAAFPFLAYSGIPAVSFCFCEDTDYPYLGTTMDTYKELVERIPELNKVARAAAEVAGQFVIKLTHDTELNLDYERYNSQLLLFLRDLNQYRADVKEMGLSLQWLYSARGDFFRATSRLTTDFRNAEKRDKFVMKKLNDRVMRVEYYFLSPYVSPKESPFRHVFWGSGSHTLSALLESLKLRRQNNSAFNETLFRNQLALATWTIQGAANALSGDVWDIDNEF
Assay: BIAcore

In the case of B21, the “BIAcore t1/2” value is reported as 42 min.

Target: T3, cynomolgus transferrin receptor on stably transfected CHO cells (cynomolgus)
T3 construct: whole, on cells; also called Cyno TfR-CHO; cyTfR (FACS)
Assay: FACS, cyno against human TfR CHO cells

In the case of B21, the “ratio EC50 Cyno/ human” value is reported as 0.9.

For B21, the “ratio max Cyno/ human” value was 1.
